From patent US20250059284A1 (AGENX, published 2025)

T1: recombinant galectin-10 crystals (Charcot-Leyden crystals) (UniProt Q05315 2-142, limits assumed)
T1 sequence (looked up): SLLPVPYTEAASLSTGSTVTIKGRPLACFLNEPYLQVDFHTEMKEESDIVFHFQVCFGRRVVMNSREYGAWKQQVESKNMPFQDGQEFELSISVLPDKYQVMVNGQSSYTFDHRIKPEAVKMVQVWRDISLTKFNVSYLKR

T2: human Gal10-His (human, UniProt Q05315 2-142, limits assumed)
T2 construct: also called human galectin-10; not shown: His tag
T2 sequence: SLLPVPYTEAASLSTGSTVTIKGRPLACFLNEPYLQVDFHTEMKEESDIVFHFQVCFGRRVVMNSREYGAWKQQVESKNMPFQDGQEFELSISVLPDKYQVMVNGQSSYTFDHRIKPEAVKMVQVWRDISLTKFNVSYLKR

T3: galectin-10 (Gal10), species and tag not stated for the assay (UniProt Q05315 2-142, limits assumed)
T3 construct: human is likely, since the human-specific 1D11 is in the panel
T3 sequence (looked up): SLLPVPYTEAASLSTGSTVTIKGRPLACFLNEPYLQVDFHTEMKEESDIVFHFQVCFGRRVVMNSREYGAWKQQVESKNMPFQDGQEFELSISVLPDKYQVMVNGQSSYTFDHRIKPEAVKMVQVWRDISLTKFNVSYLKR


Experiments:
[1] = molecular target: T1, recombinant galectin-10 crystals …; experiment: cell-based or functional assay
human Gal10-His [2] = molecular target: T2, human Gal10-His; experiment: SPR Biacore 3000; human Gal10-His captured on anti-His CM5 chip
Description: The binding properties of the selected Fab clones to human Gal10 were analyzed via a capture method established on Biacore 3000. It was decided to apply two concentrations of the selected Fab clones on human Gal10-His immobilized on a CM5 chip coated with a monoclonal anti-His.

human Gal10-His [3] = molecular target: T2, human Gal10-His; experiment: SPR Biacore 3000; human Gal10-His captured on anti-His CM5 chip; Fab at 30 nM
Description: (§1) The binding properties of the selected Fab clones to human and cynomolgus Gal10 was analyzed via a capture method established on Biacore 3000. For this purpose, two approaches were used. In the first one, two concentrations of the selected Fab clone were applied on cynomolgus (WGS isoform) Gal10-His capture on a CM5 chip coated with a monoclonal anti-His. In the second approach, a serial dilution was applied on human or cynomolgus (WGS isoform) Gal10 His on the same set up.

[4] = molecular target: T4, cynomolgus Gal10-His (WGS isoform) (cynomolgus); experiment: SPR Biacore 3000; cynomolgus Gal10-His (WGS isoform) captured on anti-His CM5 chip; Fab at 30 nM
T4 construct: also called cyno Gal10; cynomolgus antigen
Description: as §1

[5] = molecular target: T3, galectin-10 (Gal10), species and tag …; experiment: SPR (Biacore 3000), binding activity of the sample stored 4 weeks at +5 C and nebulized, relative to reference sample T0; criterion <20% loss
Description: The functional active concentration of the nebulized solutions was assessed by SPR on a Biacore 3000 instrument. All samples were evaluated with methods meeting the standard qualification criteria. Aliquots were tested at predefined test concentrations against titration curves from reference samples (TO) and in the presence of quality control (QC) samples.

| Binder | EC50, Gal10 crystal dissolution, stressed material (T4W post-nebulization, after 2 hour incubation), assay 2 [1] [µg/mL] | EC50, Gal10 crystal dissolution, unstressed material (T0, after 2 hour incubation), assay 2 [1] [µg/mL] | relative activity in recombinant Gal10 crystal dissolution, T4W post-nebulization sample relative to unstressed material T0 (at 2 hour incubation) [1] [%] | fold better off rate than g7B07 (human Gal10-His [2]) [fold] | Amplitude R0 (RU) 30 nM (human Gal10-His [3]) [RU] | Amplitude R0 (RU) 30 nM [4] [RU] | relative activity by SPR for T4W post-nebulization sample relative to reference sample T0 [5] [%] | EC50, Gal10 crystal dissolution, stressed material (T4W post-nebulization, after 2 hour incubation), assay 1 [1] [µg/mL] | EC50, Gal10 crystal dissolution, unstressed material (T0, after 2 hour incubation), assay 1 [1] [µg/mL] | relative activity in recombinant Gal10 crystal dissolution, T4W post-nebulization sample relative to unstressed material T0 (at 2 hour incubation), assay 1 [1] [%] | relative activity in recombinant Gal10 crystal dissolution, T4W post-nebulization sample relative to unstressed material T0 (at 2 hour incubation), assay 2 [1] [%] |
| --- | --- | --- | --- | --- | --- | --- | --- | --- | --- | --- | --- |
| g24F02_N53A human Fab (Fab, V domains shown, Human Fab backbone) VH: EVQLLESGGGLVQPGGSLRLSCAASGFTFSSYAMSWVRQAPGKGLEWVSAINAGGGSTSYADSVKGRFTISRDNSKNTLYLQMNSLRAEDTAVYYCAKGLRVGVLGFDYWGQGTLVTVSS VL: SYELTQPLSVSVALGQTARITCDGNNIGSKSAQWYQQKPGQAPVLVIYADEYRPEGIPERFSGSNSGNTATLTISRAQAGDEADYYCQVWDGSAAVFGGGTQLTVL | 159 | 191 | 120 | 3.5 | 647 | 544 | 111 | – | – | – | – |
| g20H09 human Fab (Fab, V domains shown, Germlined clone in human Fab backbone; also called clone 20H09) VH: EVQLLESGGGLVQPGGSLRLSCAASGFTFRSYDMSWVRQAPGKGLEWVSAIKWHRITYYADSVKGRFTISRDNSKNTLYLQMNSLRAEDTAVYYCATTHGIGTLGFGSWGQGTLVTVSS VL: SYELTQPLSVSVALGQTARITCDGNNIGSKSAQWYQQKPGQAPVLVIYADEYRPEGIPERFSGSNSGNTATLTISRAQAGDEADYYCQVWDGSAAVFGGGTQLTVL | – | – | 66 | – | – | – | 97 | 395 | 260 | – | – |
| g23H09 human Fab (Fab, V domains shown, Germlined clone in human Fab backbone; also called clone 23H09) VH: EVQLLESGGGLVQPGGSLRLSCAASGFTFRSYDMSWVRQAPGKGLEWVSAIAQFQHWTYYADSVKGRFTISRDNSKNTLYLQMNSLRAEDTAVYYCATTHGIGTLGFGSWGQGTLVTVSS VL: SYELTQPLSVSVALGQTARITCDGNNIGSKSAQWYQQKPGQAPVLVIYADEYRPEGIPERFSGSNSGNTATLTISRAQAGDEADYYCQVWDGSAAVFGGGTQLTVL | 209 | 190 | – | 1.9 | 722 | 589 | 119 | 297 | 252 | 85 | 91 |
| g24F02 human Fab (Fab, V domains shown, Germlined clone in human Fab backbone) VH: EVQLLESGGGLVQPGGSLRLSCAASGFTFSSYAMSWVRQAPGKGLEWVSAINNGGGSTSYADSVKGRFTISRDNSKNTLYLQMNSLRAEDTAVYYCAKGLRVGVLGFDYWGQGTLVTVSS VL: SYELTQPLSVSVALGQTARITCDGNNIGSKSAQWYQQKPGQAPVLVIYADEYRPEGIPERFSGSNSGNTATLTISRAQAGDEADYYCQVWDGSAAVFGGGTQLTVL | – | – | – | – | 644 | 566 | – | – | – | – | – |
